Experimental findings from doi:10.1101/258020 (bioRxiv, 2018) are described below.

Assay [1] addresses T1, TMR-phalloidin-labelled biotinylated actin filaments (Cytoskeleton) (UniProt P68135 1-377, biotin (~1 biotin per monomer)). Kind of assay: optical trap.
In assay [2] the target is T1, TMR-phalloidin-labelled biotinylated …. Kind of assay: optical trap. The source holds these as a separate data set.

B1: human β-cardiac myosin subfragment-1 (short S1, sS1 (complex)
chain 1: MGDSEMAVFGAAAPYLRKSEKERLEAQTRPFDLKKDVFVPDDKQEFVKAKIVSREGGKVTAETEYGKTVTVKEDQVMQQNPPKFDKIEDMAMLTFLHEPAVLYNLKDRYGSWMIYTYSGLFCVTVNPYKWLPVYTPEVVAAYRGKKRSEAPPHIFSISDNAYQYMLTDRENQSILITGESGAGKTVNTKRVIQYFAVIAAIGDRSKKDQSPGKGTLEDQIIQANPALEAFGNAKTVRNDNSSRFGKFIRIHFGATGKLASADIETYLLEKSRVIFQLKAERDYHIFYQILSNKKPELLDMLLITNNPYDYAFISQGETTVASIDDAEELMATDNAFDVLGFTSEEKNSMYKLTGAIMHFGNMKFKLKQREEQAEPDGTEEADKSAYLMGLNSADLLKGLCHPRVKVGNEYVTKGQNVQQVIYATGALAKAVYERMFNWMVTRINATLETKQPRQYFIGVLDIAGFEIFDFNSFEQLCINFTNEKLQQFFNHHMFVLEQEEYKKEGIEWTFIDFGMDLQACIDLIEKPMGIMSILEEECMFPKATDMTFKAKLFDNHLGKSANFQKPRNIKGKPEAHFSLIHYAGIVDYNIIGWLQKNKDPLNETVVGLYQKSSLKLLSTLFANYAGADAPIEKGKGKAKKGSSFQTVSALHRENLNKLMTNLRSTHPHFVRCIIPNETKSPGVMDNPLVMHQLRCNGVLEGIRICRKGFPNRILYGDFRQRYRILNPAAIPEGQFIDSRKGAEKLLSSLDIDHNQYKFGHTKVFFKAGLLGLLEEMRDERLSRIITRIQAQSRGVLARMEYKKLLERR
chain 2: not shown
Consider B1, for which, in assay [1], the “k0 (detachment rate from actin at zero load) with F3345” value came out at 36 s⁻¹.

B2: human β-cardiac myosin sS1-eGFP (MYH7 1-808) H251N with essential light chain (complex)
chain 1: MGDSEMAVFGAAAPYLRKSEKERLEAQTRPFDLKKDVFVPDDKQEFVKAKIVSREGGKVTAETEYGKTVTVKEDQVMQQNPPKFDKIEDMAMLTFLHEPAVLYNLKDRYGSWMIYTYSGLFCVTVNPYKWLPVYTPEVVAAYRGKKRSEAPPHIFSISDNAYQYMLTDRENQSILITGESGAGKTVNTKRVIQYFAVIAAIGDRSKKDQSPGKGTLEDQIIQANPALEAFGNAKTVRNDNSSRFGKFIRINFGATGKLASADIETYLLEKSRVIFQLKAERDYHIFYQILSNKKPELLDMLLITNNPYDYAFISQGETTVASIDDAEELMATDNAFDVLGFTSEEKNSMYKLTGAIMHFGNMKFKLKQREEQAEPDGTEEADKSAYLMGLNSADLLKGLCHPRVKVGNEYVTKGQNVQQVIYATGALAKAVYERMFNWMVTRINATLETKQPRQYFIGVLDIAGFEIFDFNSFEQLCINFTNEKLQQFFNHHMFVLEQEEYKKEGIEWTFIDFGMDLQACIDLIEKPMGIMSILEEECMFPKATDMTFKAKLFDNHLGKSANFQKPRNIKGKPEAHFSLIHYAGIVDYNIIGWLQKNKDPLNETVVGLYQKSSLKLLSTLFANYAGADAPIEKGKGKAKKGSSFQTVSALHRENLNKLMTNLRSTHPHFVRCIIPNETKSPGVMDNPLVMHQLRCNGVLEGIRICRKGFPNRILYGDFRQRYRILNPAAIPEGQFIDSRKGAEKLLSSLDIDHNQYKFGHTKVFFKAGLLGLLEEMRDERLSRIITRIQAQSRGVLARMEYKKLLERR
chain 2: not shown
For the molecule B2, the “k0 (detachment rate from actin at zero load) with F3345” value in assay [1] is 20 s⁻¹. Also, the “k0 (detachment rate from actin at zero load)” value in assay [2] turned out to be 152 s⁻¹.

B3: human β-cardiac myosin sS1-eGFP (MYH7 1-808) R237W with essential light chain (complex)
chain 1: MGDSEMAVFGAAAPYLRKSEKERLEAQTRPFDLKKDVFVPDDKQEFVKAKIVSREGGKVTAETEYGKTVTVKEDQVMQQNPPKFDKIEDMAMLTFLHEPAVLYNLKDRYGSWMIYTYSGLFCVTVNPYKWLPVYTPEVVAAYRGKKRSEAPPHIFSISDNAYQYMLTDRENQSILITGESGAGKTVNTKRVIQYFAVIAAIGDRSKKDQSPGKGTLEDQIIQANPALEAFGNAKTVWNDNSSRFGKFIRIHFGATGKLASADIETYLLEKSRVIFQLKAERDYHIFYQILSNKKPELLDMLLITNNPYDYAFISQGETTVASIDDAEELMATDNAFDVLGFTSEEKNSMYKLTGAIMHFGNMKFKLKQREEQAEPDGTEEADKSAYLMGLNSADLLKGLCHPRVKVGNEYVTKGQNVQQVIYATGALAKAVYERMFNWMVTRINATLETKQPRQYFIGVLDIAGFEIFDFNSFEQLCINFTNEKLQQFFNHHMFVLEQEEYKKEGIEWTFIDFGMDLQACIDLIEKPMGIMSILEEECMFPKATDMTFKAKLFDNHLGKSANFQKPRNIKGKPEAHFSLIHYAGIVDYNIIGWLQKNKDPLNETVVGLYQKSSLKLLSTLFANYAGADAPIEKGKGKAKKGSSFQTVSALHRENLNKLMTNLRSTHPHFVRCIIPNETKSPGVMDNPLVMHQLRCNGVLEGIRICRKGFPNRILYGDFRQRYRILNPAAIPEGQFIDSRKGAEKLLSSLDIDHNQYKFGHTKVFFKAGLLGLLEEMRDERLSRIITRIQAQSRGVLARMEYKKLLERR
chain 2: not shown
On to B3, for which the “k0 (detachment rate from actin at zero load)” value in assay [2] was found to be 155 s⁻¹.

B4: human β-cardiac myosin sS1-eGFP (MYH7 1-808) A223T with essential light chain (complex)
chain 1: MGDSEMAVFGAAAPYLRKSEKERLEAQTRPFDLKKDVFVPDDKQEFVKAKIVSREGGKVTAETEYGKTVTVKEDQVMQQNPPKFDKIEDMAMLTFLHEPAVLYNLKDRYGSWMIYTYSGLFCVTVNPYKWLPVYTPEVVAAYRGKKRSEAPPHIFSISDNAYQYMLTDRENQSILITGESGAGKTVNTKRVIQYFAVIAAIGDRSKKDQSPGKGTLEDQIIQTNPALEAFGNAKTVRNDNSSRFGKFIRIHFGATGKLASADIETYLLEKSRVIFQLKAERDYHIFYQILSNKKPELLDMLLITNNPYDYAFISQGETTVASIDDAEELMATDNAFDVLGFTSEEKNSMYKLTGAIMHFGNMKFKLKQREEQAEPDGTEEADKSAYLMGLNSADLLKGLCHPRVKVGNEYVTKGQNVQQVIYATGALAKAVYERMFNWMVTRINATLETKQPRQYFIGVLDIAGFEIFDFNSFEQLCINFTNEKLQQFFNHHMFVLEQEEYKKEGIEWTFIDFGMDLQACIDLIEKPMGIMSILEEECMFPKATDMTFKAKLFDNHLGKSANFQKPRNIKGKPEAHFSLIHYAGIVDYNIIGWLQKNKDPLNETVVGLYQKSSLKLLSTLFANYAGADAPIEKGKGKAKKGSSFQTVSALHRENLNKLMTNLRSTHPHFVRCIIPNETKSPGVMDNPLVMHQLRCNGVLEGIRICRKGFPNRILYGDFRQRYRILNPAAIPEGQFIDSRKGAEKLLSSLDIDHNQYKFGHTKVFFKAGLLGLLEEMRDERLSRIITRIQAQSRGVLARMEYKKLLERR
chain 2: not shown
In the case of B4, the “k0 (detachment rate from actin at zero load)” value in assay [2] is 104 s⁻¹.

B5: human β-cardiac myosin sS1-eGFP (MYH7 1-808) S532P with essential light chain (complex)
chain 1: MGDSEMAVFGAAAPYLRKSEKERLEAQTRPFDLKKDVFVPDDKQEFVKAKIVSREGGKVTAETEYGKTVTVKEDQVMQQNPPKFDKIEDMAMLTFLHEPAVLYNLKDRYGSWMIYTYSGLFCVTVNPYKWLPVYTPEVVAAYRGKKRSEAPPHIFSISDNAYQYMLTDRENQSILITGESGAGKTVNTKRVIQYFAVIAAIGDRSKKDQSPGKGTLEDQIIQANPALEAFGNAKTVRNDNSSRFGKFIRIHFGATGKLASADIETYLLEKSRVIFQLKAERDYHIFYQILSNKKPELLDMLLITNNPYDYAFISQGETTVASIDDAEELMATDNAFDVLGFTSEEKNSMYKLTGAIMHFGNMKFKLKQREEQAEPDGTEEADKSAYLMGLNSADLLKGLCHPRVKVGNEYVTKGQNVQQVIYATGALAKAVYERMFNWMVTRINATLETKQPRQYFIGVLDIAGFEIFDFNSFEQLCINFTNEKLQQFFNHHMFVLEQEEYKKEGIEWTFIDFGMDLQACIDLIEKPMGIMPILEEECMFPKATDMTFKAKLFDNHLGKSANFQKPRNIKGKPEAHFSLIHYAGIVDYNIIGWLQKNKDPLNETVVGLYQKSSLKLLSTLFANYAGADAPIEKGKGKAKKGSSFQTVSALHRENLNKLMTNLRSTHPHFVRCIIPNETKSPGVMDNPLVMHQLRCNGVLEGIRICRKGFPNRILYGDFRQRYRILNPAAIPEGQFIDSRKGAEKLLSSLDIDHNQYKFGHTKVFFKAGLLGLLEEMRDERLSRIITRIQAQSRGVLARMEYKKLLERR
chain 2: not shown
Turning to B5, the “k0 (detachment rate from actin at zero load)” value in assay [2] came out at 80 s⁻¹.

B6: human β-cardiac myosin sS1-eGFP (MYH7 1-808) D239N with essential light chain (complex)
chain 1: MGDSEMAVFGAAAPYLRKSEKERLEAQTRPFDLKKDVFVPDDKQEFVKAKIVSREGGKVTAETEYGKTVTVKEDQVMQQNPPKFDKIEDMAMLTFLHEPAVLYNLKDRYGSWMIYTYSGLFCVTVNPYKWLPVYTPEVVAAYRGKKRSEAPPHIFSISDNAYQYMLTDRENQSILITGESGAGKTVNTKRVIQYFAVIAAIGDRSKKDQSPGKGTLEDQIIQANPALEAFGNAKTVRNNNSSRFGKFIRIHFGATGKLASADIETYLLEKSRVIFQLKAERDYHIFYQILSNKKPELLDMLLITNNPYDYAFISQGETTVASIDDAEELMATDNAFDVLGFTSEEKNSMYKLTGAIMHFGNMKFKLKQREEQAEPDGTEEADKSAYLMGLNSADLLKGLCHPRVKVGNEYVTKGQNVQQVIYATGALAKAVYERMFNWMVTRINATLETKQPRQYFIGVLDIAGFEIFDFNSFEQLCINFTNEKLQQFFNHHMFVLEQEEYKKEGIEWTFIDFGMDLQACIDLIEKPMGIMSILEEECMFPKATDMTFKAKLFDNHLGKSANFQKPRNIKGKPEAHFSLIHYAGIVDYNIIGWLQKNKDPLNETVVGLYQKSSLKLLSTLFANYAGADAPIEKGKGKAKKGSSFQTVSALHRENLNKLMTNLRSTHPHFVRCIIPNETKSPGVMDNPLVMHQLRCNGVLEGIRICRKGFPNRILYGDFRQRYRILNPAAIPEGQFIDSRKGAEKLLSSLDIDHNQYKFGHTKVFFKAGLLGLLEEMRDERLSRIITRIQAQSRGVLARMEYKKLLERR
chain 2: not shown
With B6, the “k0 (detachment rate from actin at zero load) with F3345” value in assay [1] was 24 s⁻¹. The “k0 (detachment rate from actin at zero load)” value in assay [2] was 140 s⁻¹.
